Reference: patent US20200079855A1 (Pfizer, published 2020)

Legend:
[1] = target: T1, human αvβ8 integrin on U251 cells (human, UniProt P06756 31-1048)
[2] = target: T1, human αvβ8 integrin on U251 cells; assay: cell-based or functional assay
[3] = target: T1, human αvβ8 integrin on U251 cells; assay: flow cytometry on U251 cells
[4] = target: T2, mouse αvβ8 integrin on C8-S cells (mouse, UniProt P43406 31-1044; Q0VBD0 22-767); assay: flow cytometry on C8-S cells
T2 construct: Endogenous αvβ8 of C8-S mouse astrocyte cells; also called C8-S (mouse astrocyte); C8-S (mouse avb8)
Procedure: (§1) 100,000 cells were incubated with a dilution series of the anti-αvβ8 or human IgG1_3 mut Isotype antibody for three to four hours on ice. The cells were spun down for five minutes at 300 g force. The cells were then washed three times with wash buffer (PBS+0.2% BSA) to remove excess unbound antibodies. After thorough washing, cells were incubated with Fab′2 anti-human Fc-PE (Invitrogen) or goat Fab′2 anti-mouse-APC (Jackson Labs) at 1:1000 dilution along with LIVE/DEAD fixable cell stain (Invitrogen) at 1:2000 to distinguish live cells. The whole content was incubated for 30 minutes on ice. After washing, the stained cells were analyzed on BD biosciences Fortessa flow cytometer (gated for live cells) using FlowJo analysis software. The mean fluorescence intensities (MFI) at different antibody concentrations were plotted for various antibodies.
(§2) The apparent-affinity of ADWA11 2.4 for U251 (human glioblastoma) or C8-S (mouse astrocyte) cells was also evaluated in a cell-binding assay, according to the methods as generally described herein. Briefly, cells were incubated with a serial dilution of ADWA11 2.4 for 4 hours on ice, followed by detection on bound antibody with an anti-human-PE secondary antibody, and analyzed by flow cytometry.

[5] = target: T2, mouse αvβ8 integrin on C8-S cells; assay: cell-based or functional assay
[6] = target: T3, recombinant human αvβ3 integrin (human, UniProt P06756 31-992; P05106 27-718); assay: SPR (Biacore), recombinant integrin immobilised
T3 construct: Used in ELISA and immobilised on the Biacore chip; construct not described; also called hαvβ3; AVB3
Procedure: (§3) To evaluate the specificity of ADWA11 2.4, recombinant human αvβ6 and αvβ3 were immobilized on a Biacore chip and binding of the parental murine and humanized mAb variant of ADWA11 2.4 was determined.

[7] = target: T4, recombinant human αvβ6 integrin (human, UniProt P06756 31-992; P18564 22-707); assay: SPR (Biacore), recombinant integrin immobilised
T4 construct: Used in ELISA and immobilised on the Biacore chip; construct not described; also called hαvβ6; AVB6
Procedure: as §3

[8] = target: T1, human αvβ8 integrin on U251 cells; assay: flow cytometry on live U251 cells, 4 hours on ice, anti-human-PE secondary, n=3
[9] = target: T5, human αvβ8 integrin on HEK293-F cells (human, UniProt P06756 31-1048; P26012 43-769); assay: flow cytometry, titration on HEK cells overexpressing human integrin β8, right panel
T5 construct: whole, on cells; HEK293-F cells transiently expressing the full length beta subunit; also called HEK cells expressing αvβ8
Procedure: (§4) For cell-binding experiments with HEK293-F cells overexpressing human αvβ3, αvβ5, αvβ6, αvβ8. HEK293-F cells transiently expressing full length human integrin beta 3 (Accession No. NP_000203.2), human integrin beta 5 (Accession No. NP_002204.2), human integrin beta 6 (Accession No. NP_000879.2), or human integrin beta 8 (Accession No. NP_002205.1) were prepared using proprietary vectors and vendor provided protocols. Cells were harvested after 4 days and analyzed for integrin expression. To characterize Integrin αvβ3, αvβ5, αvβ6, αvβ8 expression 100,000 cells were incubated in the indicated commercially available or directly conjugated proprietary antibodies for 30 minutes, along with LIVE/DEAD fixable cell stain (Invitrogen) at 1:2000 to distinguish live cells. Cells were spun down for five minutes at 300 g force. The cells were then washed twice with wash buffer (PBS+0.2% BSA) to remove excess unbound antibodies and ananalysed on BD biosciences Fortessa flow cytometer
(§5) 100,000 cells were incubated with a dilution series of the anti-αvβ8 or human IgG1_3 mut Isotype antibody for three to four hours on ice. […] After washing, the stained cells were analyzed on BD biosciences Fortessa flow cytometer (gated for live cells) using FlowJo analysis software. The mean fluorescence intensities (MFI) at different antibody concentrations were plotted for various antibodies.

[10] = target: T6, human αvβ3 integrin on HEK293-F cells (human, UniProt P06756 31-1048; P05106 27-788); assay: flow cytometry, titration of ADWA11 2.4 on HEK cells overexpressing human integrin β3 (gMFI minus secondary), right panel
T6 construct: whole, on cells; HEK293-F cells transiently expressing the full length beta subunit; also called HEK cells expressing αvβ3
Procedure: as §4, §5

[11] = target: T7, human αvβ5 integrin on HEK293-F cells (human, UniProt P06756 31-1048; P18084 24-799); assay: flow cytometry, titration of ADWA11 2.4 on HEK cells overexpressing human integrin β5 (gMFI minus secondary), right panel
T7 construct: whole, on cells; HEK293-F cells transiently expressing the full length beta subunit; also called HEK cells expressing αvβ5
Procedure: as §4, §5

[12] = target: T8, human αvβ6 integrin on HEK293-F cells (human, UniProt P06756 31-1048; P18564 22-788); assay: flow cytometry, titration of ADWA11 2.4 on HEK cells overexpressing human integrin β6 (gMFI minus secondary), right panel
T8 construct: whole, on cells; HEK293-F cells transiently expressing the full length beta subunit; also called HEK cells expressing αvβ6
Procedure: as §4, §5

[13] = target: T1, human αvβ8 integrin on U251 cells; assay: flow cytometry, IgG binding to U251 cells (MFI PE-A), left panel ADWA11_IgG_U251 cell binding; EC50 unit inferred, axis Log10 [mAb] nM
[14] = target: T2, mouse αvβ8 integrin on C8-S cells; assay: flow cytometry, IgG binding to C8-S cells (MFI PE-A), right panel ADWA11_IgG_C8-S cell binding; EC50 unit inferred, axis Log10 [mAb] nM
Procedure: as §1, §2

T2 sequence (P43406 31-1044 limits assumed, chain 1 of 2): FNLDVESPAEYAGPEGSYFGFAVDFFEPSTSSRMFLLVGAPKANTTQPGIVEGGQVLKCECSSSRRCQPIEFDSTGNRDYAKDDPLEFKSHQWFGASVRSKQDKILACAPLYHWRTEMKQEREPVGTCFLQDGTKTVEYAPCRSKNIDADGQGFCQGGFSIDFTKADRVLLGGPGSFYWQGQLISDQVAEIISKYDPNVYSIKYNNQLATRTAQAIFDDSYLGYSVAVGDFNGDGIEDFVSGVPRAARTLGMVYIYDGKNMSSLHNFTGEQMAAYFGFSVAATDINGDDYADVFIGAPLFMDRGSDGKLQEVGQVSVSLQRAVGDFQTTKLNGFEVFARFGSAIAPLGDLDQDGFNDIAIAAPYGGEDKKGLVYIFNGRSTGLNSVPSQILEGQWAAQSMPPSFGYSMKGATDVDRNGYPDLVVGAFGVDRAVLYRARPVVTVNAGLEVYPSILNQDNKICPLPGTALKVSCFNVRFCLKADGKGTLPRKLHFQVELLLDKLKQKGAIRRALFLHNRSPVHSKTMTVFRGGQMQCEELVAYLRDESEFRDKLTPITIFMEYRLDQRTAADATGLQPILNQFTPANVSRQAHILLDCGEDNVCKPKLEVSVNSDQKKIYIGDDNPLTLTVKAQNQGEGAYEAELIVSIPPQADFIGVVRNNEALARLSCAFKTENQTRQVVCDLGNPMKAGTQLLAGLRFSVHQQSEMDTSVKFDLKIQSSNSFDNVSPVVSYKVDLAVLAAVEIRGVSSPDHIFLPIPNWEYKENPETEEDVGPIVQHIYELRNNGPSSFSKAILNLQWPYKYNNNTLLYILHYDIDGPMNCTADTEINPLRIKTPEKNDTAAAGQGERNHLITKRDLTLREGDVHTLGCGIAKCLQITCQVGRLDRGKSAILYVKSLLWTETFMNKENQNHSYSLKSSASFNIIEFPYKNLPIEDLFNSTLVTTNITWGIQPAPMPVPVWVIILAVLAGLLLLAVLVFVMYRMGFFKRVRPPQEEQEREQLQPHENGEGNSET
T2 sequence (Q0VBD0 22-767 limits assumed, chain 2 of 2): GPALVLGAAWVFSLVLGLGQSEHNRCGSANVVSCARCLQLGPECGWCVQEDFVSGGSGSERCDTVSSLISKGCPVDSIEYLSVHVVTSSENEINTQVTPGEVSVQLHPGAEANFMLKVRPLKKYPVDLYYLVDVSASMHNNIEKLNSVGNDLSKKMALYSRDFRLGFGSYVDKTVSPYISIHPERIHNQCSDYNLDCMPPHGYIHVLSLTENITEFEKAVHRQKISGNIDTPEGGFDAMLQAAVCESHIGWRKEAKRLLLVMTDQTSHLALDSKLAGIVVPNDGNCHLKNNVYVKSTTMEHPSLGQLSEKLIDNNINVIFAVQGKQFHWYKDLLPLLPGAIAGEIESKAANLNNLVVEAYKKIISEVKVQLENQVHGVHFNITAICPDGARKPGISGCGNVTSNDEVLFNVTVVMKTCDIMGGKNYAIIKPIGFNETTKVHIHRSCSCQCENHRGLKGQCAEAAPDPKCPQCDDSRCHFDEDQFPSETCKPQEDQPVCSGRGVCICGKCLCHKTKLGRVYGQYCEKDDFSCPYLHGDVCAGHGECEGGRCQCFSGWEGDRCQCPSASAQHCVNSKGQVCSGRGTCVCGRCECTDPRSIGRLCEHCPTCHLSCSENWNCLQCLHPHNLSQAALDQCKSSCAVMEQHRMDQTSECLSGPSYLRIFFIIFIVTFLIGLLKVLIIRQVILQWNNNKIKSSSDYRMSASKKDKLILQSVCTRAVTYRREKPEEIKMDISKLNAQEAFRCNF
T4 sequence (P06756 31-992 limits assumed, chain 1 of 2): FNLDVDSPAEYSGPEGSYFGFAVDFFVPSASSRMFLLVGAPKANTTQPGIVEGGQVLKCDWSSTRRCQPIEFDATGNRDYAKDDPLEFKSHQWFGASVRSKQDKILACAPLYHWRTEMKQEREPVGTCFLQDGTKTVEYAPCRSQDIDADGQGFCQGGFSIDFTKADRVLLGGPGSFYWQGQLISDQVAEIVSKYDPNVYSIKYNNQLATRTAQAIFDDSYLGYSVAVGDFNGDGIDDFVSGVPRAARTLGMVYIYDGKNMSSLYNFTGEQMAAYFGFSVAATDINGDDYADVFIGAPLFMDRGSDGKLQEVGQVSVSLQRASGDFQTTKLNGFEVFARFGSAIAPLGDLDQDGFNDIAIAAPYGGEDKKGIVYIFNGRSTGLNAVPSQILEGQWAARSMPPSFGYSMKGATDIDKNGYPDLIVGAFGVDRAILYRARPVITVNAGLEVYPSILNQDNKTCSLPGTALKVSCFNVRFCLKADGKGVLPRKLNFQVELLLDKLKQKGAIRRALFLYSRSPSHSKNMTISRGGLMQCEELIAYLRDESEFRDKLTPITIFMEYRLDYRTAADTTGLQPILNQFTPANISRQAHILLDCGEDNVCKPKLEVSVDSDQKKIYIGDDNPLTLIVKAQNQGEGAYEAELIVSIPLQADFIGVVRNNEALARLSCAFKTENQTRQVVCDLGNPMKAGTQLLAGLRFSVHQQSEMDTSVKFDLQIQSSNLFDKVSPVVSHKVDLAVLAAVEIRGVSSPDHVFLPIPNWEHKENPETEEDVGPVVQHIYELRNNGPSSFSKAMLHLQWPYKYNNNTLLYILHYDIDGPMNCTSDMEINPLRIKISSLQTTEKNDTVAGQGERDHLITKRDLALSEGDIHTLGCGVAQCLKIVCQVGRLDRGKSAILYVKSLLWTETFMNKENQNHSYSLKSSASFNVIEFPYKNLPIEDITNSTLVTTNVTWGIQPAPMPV
T4 sequence (P18564 22-707 limits assumed, chain 2 of 2): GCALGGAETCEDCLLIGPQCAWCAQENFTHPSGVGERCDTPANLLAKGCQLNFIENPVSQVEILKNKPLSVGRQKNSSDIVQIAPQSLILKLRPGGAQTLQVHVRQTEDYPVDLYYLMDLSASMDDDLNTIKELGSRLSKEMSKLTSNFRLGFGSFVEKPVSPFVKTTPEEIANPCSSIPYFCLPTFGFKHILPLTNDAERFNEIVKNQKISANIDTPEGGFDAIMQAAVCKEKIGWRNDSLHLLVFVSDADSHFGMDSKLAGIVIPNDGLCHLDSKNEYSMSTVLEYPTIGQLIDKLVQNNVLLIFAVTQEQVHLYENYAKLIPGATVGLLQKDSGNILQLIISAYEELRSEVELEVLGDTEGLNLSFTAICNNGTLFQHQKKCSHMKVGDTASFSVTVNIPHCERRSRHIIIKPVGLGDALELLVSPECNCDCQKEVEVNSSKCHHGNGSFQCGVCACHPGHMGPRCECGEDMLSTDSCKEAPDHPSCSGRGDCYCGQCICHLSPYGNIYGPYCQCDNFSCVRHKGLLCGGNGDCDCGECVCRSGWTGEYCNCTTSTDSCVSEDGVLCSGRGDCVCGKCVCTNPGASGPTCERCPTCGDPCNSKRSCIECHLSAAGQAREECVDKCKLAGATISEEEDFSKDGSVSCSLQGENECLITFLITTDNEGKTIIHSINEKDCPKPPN
T3 sequence (P06756 31-992 limits assumed, chain 1 of 2): as the sequence (P06756 31-992 limits assumed, chain 1 of 2) above
T3 sequence (P05106 27-718 limits assumed, chain 2 of 2): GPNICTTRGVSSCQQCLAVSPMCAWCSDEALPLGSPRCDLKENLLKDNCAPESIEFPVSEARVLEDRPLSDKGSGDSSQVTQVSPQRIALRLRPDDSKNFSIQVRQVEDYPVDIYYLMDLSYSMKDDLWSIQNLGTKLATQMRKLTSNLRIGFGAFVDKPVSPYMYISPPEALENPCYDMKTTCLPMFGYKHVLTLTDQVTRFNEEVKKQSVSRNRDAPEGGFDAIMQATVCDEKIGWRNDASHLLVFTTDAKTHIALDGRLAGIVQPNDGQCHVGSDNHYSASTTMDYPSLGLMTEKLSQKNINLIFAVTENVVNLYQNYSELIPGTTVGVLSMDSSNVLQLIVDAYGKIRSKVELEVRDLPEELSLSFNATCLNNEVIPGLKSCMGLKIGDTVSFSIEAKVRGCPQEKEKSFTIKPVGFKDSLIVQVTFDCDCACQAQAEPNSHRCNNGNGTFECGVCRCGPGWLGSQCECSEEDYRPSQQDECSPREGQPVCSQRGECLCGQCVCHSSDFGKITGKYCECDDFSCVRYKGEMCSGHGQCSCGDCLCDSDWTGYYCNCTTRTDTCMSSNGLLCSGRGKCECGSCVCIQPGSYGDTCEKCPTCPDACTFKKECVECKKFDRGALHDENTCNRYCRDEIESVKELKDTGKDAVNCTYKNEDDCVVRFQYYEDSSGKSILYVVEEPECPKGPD

IC50 (read off the curve) [1]: 0.1 nM
IC50 in the TGFβ transactivation assay with U251 cells [2]: 0.199 nM
EC50 [3]: 0.256 nM
EC50 [4]: 0.145 nM
IC50 (read off the curve) [5]: ~0.2 nM
binding result [6]: no binding
binding result [7]: no binding
EC50 [8]: 0.126 nM
EC50 (read off the curve) [9]: ~2 nM
binding result [10]: no binding (tested: 100 nM)
binding result [11]: no binding (tested: 100 nM)
binding result [12]: no binding (tested: 100 nM)
EC50 [13]: 0.105 nM
EC50 [14]: 0.115 nM
B1: ADWA11 2.4 (IgG) (antibody, V domains shown)
VH: EVQLVESGGGLVQPGGSLRLSCAASGFNIKDYYMNWVRQAPGKGLEWVGWIDPDQGNTIYEPKFQGRFTISADTSKNSAYLQMNSLRAEDTAVYYCARRLLMDYWGQGTLVTVSS
VL: DIQMTQSPSSLSASVGDRVTITCRSTKSLSHFNGNTYLFWYQQKPGKAPKRLIYYMSSLASGVPSRFSGSGSGTDFTLTISSLQPEDFATYYCQQSLEYPFTFGGGTKVEIKR
notes: Human IgG1 effectorless (L234A, L235A, G237A), kappa; also called ADWA11 VH05-2/VK01(2.4); ADWA11_VH05-2_VK01(2.4)
